{"source": "patent US20210070811A1", "about": "(BOARD OF TRUSTEES OF MICHIGAN STATE UNIVERSITY, published 2021)", "proteins": {"B1": {"name": "PilA19 (truncated PilA pilin peptide of Geobacter sulfurreducens lacking the first 19 N-terminal amino acids of the mature PilA) (peptide)", "peptide": "AIPQFSAYRVKAYNSAASSDLRNLKTALESAFADDQTYPPES", "notes": "Recombinant peptide made in E. coli as a CBD-intein fusion and released by DTT-induced intein splicing; 42 residues; It self-assembles into a fibre; also called PilA19 peptide; recombinant PilA19"}}, "molecular_target": "the molecule itself", "experiment": "circular dichroism of PilA19 with SDS at pH 3.8; 222 nm/208 nm intensity ratio of 1", "data": [{"protein": "B1", "values": [{"measurement": "binding result", "result": "binds"}]}]}
